Like-named read-outs stand apart in the source and are kept apart here.
Legend:
[1] = molecular target: IgG1 heavy chain with CH3 construct 2 (K392D, K409D) and common light chain (human) [IgG part: P01857]; assay: native MS, transfection #11 of Table 24; fibrinogen VH on construct 1 with fibrinogen VH on construct 2
[2] = molecular target: IgG1 heavy chain with CH3 construct 2 (K392D, K409D) and common light chain (human) [IgG part: P01857]
[3] = molecular target: IgG1 heavy chain with CH3 construct 67 (K360D) and common light chain (human) [IgG part: P01857]
[4] = molecular target: IgG1 heavy chain with CH3 construct 8 (Q347K) and common light chain (human) [IgG part: P01857]
[5] = molecular target: IgG1 heavy chain with CH3 construct 64 (T366D) and common light chain (human) [IgG part: P01857]
[6] = molecular target: IgG1 heavy chain with CH3 construct 61 (L351K) and common light chain (human) [IgG part: P01857]

IgG1 heavy chain with CH3 construct 1 (E356K, D399K) and common light chain (from UniProt P01857-1)
% of the mixture (peak height) [1]: 61% | % of the mixture (peak height) [2]: 67%

IgG1 heavy chain with CH3 construct 8 (Q347K) and common light chain (from UniProt P01857-1)
AC found (%) [3]: 41% | AA found (%) [4]: 34%

IgG1 heavy chain with CH3 construct 61 (L351K) and common light chain (from UniProt P01857-1)
AC found (%) [5]: 52% | AA found (%) [6]: 30%

From US20150196637A1
